Laboratory results: the DeepSol protein solubility set

Assay: soluble on expression in E. coli; label from the status in PepcDB or PDB records

| Sequence | soluble on expression in E. coli |
| --- | --- |
| MGHHHHHHSHMKVVLSLGGSVLSNESEKIREFAKTIESVAQQNQVFVVVGGGKLAREYIKRARELGASETFCDYIGIAATRLNAMLLISAIPSAAKKVPVDFMEAEELSKLYRVVVMGGTFPGHTTDATAALLAEFIKADVFINATNVDGVYSADPKSDTSAVKYDRLSPQQLVEIVSRSSAKAGTNVVIDLLAAKIIERSKIKTYVIL | soluble |
| MGSDKIHHHHHHMTSKPSTSDGRAHSISHVPGTHMRGTSASHSPRPFRPCADCTCSPGLLSRQGRRASLFLRQLENSRRSSSMLLNELKGAGGGSSAGNGSVYSCDSLCAVNREVNTTDRLLKLRQEMKKHDLCCYIVPSCDEHQSEYVSLRDQRRAFISGFSGSAGVACITRDLLNFNDDHPDGKSILSTDGRYFNQARQELDYNWTLLRQNEDPITWQEWCVREALEMAKGLGNKEGMVLKIGIDPKLITFNDYVSFRKMIDTKYDAKGKVELVPVEENLVDSIWPDFETLPERPCNDLLLLKYEFHGEEFKDKKEKLLKKLNDKASSATTGRNTFIVVALDEICWLLNLRGSDIDYNPVFFSYVAINEDETILFTNNPFNDDISEYFKINGIEVRPYEQIWEHLTKITSQASSAEHEFLIPDSASWQMVRCLNTSTNANGAIAKKMTAQNFAIIHSPIDVLKSIKNDIEIKNAHKAQVKDAVCLVQYFAWLEQQLVGREALIDEYRAAEKLTEIRKTQRNFMGNSFETISSTGSNAAIIHYSPPVENSSMIDPTKIYLCDSGSQFLEGTTDITRTIHLTKPTKEEMDNYTLVLKGGLALERLIFPENTPGFNIDAIARQFLWSRGLDYKHGTGHGIGSFLNVHEGPMGVGFRPHLMNFPLRAGNIISNEPGYYKDGEYGIRIESDMLIKKATEKGNFLKFENMTVVPYCRKLINTKLLNEEEKTQINEYHARVWRTIVHFLQPQSISYKWLKRETSPL | not soluble |
| GMFVWHEYENAAEAAQSLADAVADALQGALDEKGGAVLAVSGGRSPIAFFNALSQKDLDWKNVGITLADERIVPTNHADSNTGLVREYLLKNKAAAAVWIPMVEDGKTETELHPDAVVDYALKHYKQPDVLILGMGNDGHTASIFPKAPQFQTAIDGSAGVALVHTTPVTAPHERISMTLDAIAHTGHVFLAIQGEEKKAVFDQAAQGENREYPISLVLNHQGVNCHVFYAE | soluble |
| MAHHHHHHMNKNFAQILEDFISDGSRKHRGHGDDGANEENVPHFINQDGSNLFNDDIGKKFEKKNFFKYTEYSLSSLYMSDNQIPLEEDPKFETFINVITKASDVNNEYKWVDDYFKFEVKEEMNILTPRSQDRDFLFRKYLQPNQLKNICLLRKYEQAAISKTPEKNKVDAKIVSEYIVHDSYRQIMKALNFKWSHRIFTKARIFHSKYGNSDHIVILVMRHYKDENFLHPLFHDRALVQIKSYLNDNKHADMTQKNLLNYTEVFKPYVSLRKVDSNFVEQIKDRYYGAF | soluble |
| SNDYRVAVFGAGGVGKSSLVLRFVKGTFRESYIPTVEDTYRQVISCDKSICTLQITDTTGSHQFPAMQRLSISKGHAFILVYSITSRQSLEELKPIYEQICEIKGDVESIPIMLVGNKCDESPSREVQSSEAEALARTWKCAFMETSAKLNHNVKELFQELLNLEKRRTVSL | soluble |
| SDVYNNTAFFEQYMKRRYRENSPNESIEKPVFFQLIGHVQGKQILDLGCGDAKFGAELLEKGCYSYTGIEGSELMYEKAKKQLENKNGSVHFLNLKDYTYPSSTFDLVTSRLALHYIEHLDTIFQNVFQTLKTNGTFTFSVQHPVITSSFESLQTSGKRTIWLVDDYFKLGKRVEPWIDQEVIKYHRTTEEYFTLLQQAGFTITSLKEATPNPTYFQDEEEYKRRLRIPLFLLFSCTK | soluble |
| TRFVPGGPVERMLSQMQSQGDGAASMTSAGGNTALSDEQIAELNAFYGLDKPVMEAYVDWLSRLVTLDLGESTRYYEPVSDMIAERLP | not soluble |
| MAHHHHHHMLRGVTIKCGNVTNAVRVPSRFISMAPTRNEEKATQKRNKWEYILSLDEALYLSKEMGIKTTTEVQKIVMRSPPFSPDMSPFLIDNFLCSANRGSHSDEIAQIDQKLKALEERGDNSQESEKGEVQVALHNNEMNDTAQNREEDIINKILIDKFNKKRGKTFIHNDMEWLEESEGIGTNKRSSAYVYIKRGSGIVKVNDEEDLYIRWPYFYNRMDVLEPFYVTNTACVFDVFIKLKGGGISGQSKAARLAVGRALLNACPLIYDELKQHHILYEDMRQKLPKMPGRKKSRAMKQWSKR | not soluble |
| MSLDQPLTFYGLKSMSGAFASYGKYADMGSRLAIAEHPQLLGHPLKYKVIDTEGNAGKAVRKVQEAIGQDGARFFQGCTLSSSALAVSKEIHKAGGVFMTPVGADEITGKDCNASTFRWSVPTYGAIRETLVPMSRQLPQAKRWYTITPQYVFGDALLDNARKVFAELGVEHIGNSYHSLQEQEFSGYLTNAIAAKPDVLVLLNFGSQASNALRQAVNFGIKDRMKVLMVWSAGLDQFQELGSDVLEGVYLGAQYWHQVDTPLNKLLVAATRKAYGINPNYPLAADYIGTKVMLEAIVKAGSLDGAAVSAALQGMRFQGPTGEELIRPGDHQVLKDYYLLRGKPQGQMRDEDDLAEVISSGRSFVEVDHTGCALAEGHHHHHH | soluble |
| MDDDFVRALNKFNSKFSFRNKKNSLNEVLQKNKRNDKKEDINCNKLKNDLELQYIHSSNNKICQKFLTLPLNKKSDKLKDHSDKIILPVSILKTLEKGNYKNEVEFPYTFSIKNVQNNYITHACVLEFSSNEGIIFVSDNIKENLGLNKPQNSSIARVLITYCILSKCDFIKLDSLNNNINDIKYMKNLLENELSLNYSTLTLGDYIHINHLNFYISELEPDNAVSLINTDINVDICERNNMEGYKNVNILGDHKDIYEIIKIDIPINSSIQKGMNKYKFVLNNNTLDLLKKGKIELAIHLQSQMMLHSLNLFISLPPLDSVSEVLHHLYIDDYSTDEIIINREVIRNILKLHFACMIKEQPYNKNNDNHHANDKEDNVHNGTCNDHHEDDKIEKQNYDDSFLEYIFEHFFPHIIYIGVHNYMDTLVDYSICLKLNGEKNMSTKKDDSNNKCVNTSGFIHNNINLLKNININTQDIDNNNNDDTYITCDNCLKNILKYNIHMHKIHCLKNFTLCNICKKVLKKNEKDNHIHCDICNEGMHKNKKKTHELIWHTQIKCVCDKLLFRKQFIFHQNLFCPKKIIYCTFCNIFTQSNINIYNEEFILATFFDKYDNIKTNNSTVNKSIKYYYNMLFTYFHFFLKYIKNTEHEKYCGSKSINCTICKQIIYRNEYLLHLNTLHHFNKIESFKIINDNADLSQLMN | not soluble |
| MSLAIGDILRKSARRFPDRVALTDGGRSVTYTELERDANRFANALVARGLKPGAKISTVCNNSIEFVKALFGIHRAGLVWVPINTMLGPDDMGYILDHAGVKVAVIDDNLHGQPERRAALEARGIDLIAINLAGKAADTGLPVFDQLIEGLSEIEPDVAFDDRDLAMIIYTSGTTSRPKGAMHCHLAVTMAVMSNAIEMQLSRKDGITGQFPLFHCAAHVLLLSYLIVGGQMAIMRGFDPVACMEAIQRNKLTVFIGLPLMYQVILDHPRRKEFDLSSLRCCIYTMAPMPRPLLERAIAELCPTFVQPSGQTEMYPATTMSQPDRQLARFGNYWGESTLVNETAIMDDAGNLLPPGEVGEIVHRGPNVMLGYYKDPEATEAARKFGWHHTGDLALIDEHGEVLFLDRKKDMIKSGGENVASIKIEETLLAHPSVMNAAVVGLPHPQWGEAVSGFVKLKPGASATEAEIVEHCKKHLGGFQVPKLLRIVDEMPMTATGKLRKVELRNQFTDHFMLGQTEGHHHHHH | soluble |
| MRYFKRRVGSGRVYMVMDNYSPHKTKGTLEVCCRKGIHPVFTPPYSPELNMAEAVFKSLKNYMSNKIFYTIEDVKNCIKQFFEENKYRFNLNAITYLGLDKIEV | soluble |
| WQFTPNTGGNTITKVEAENMKIGGTYAGKISAPFDGVALYANADYVSYSQYFANSTHNISVRGASSNAGTAKVDLVIGGVTVGSFNFTGKTPTVQTLSNITHATGDQEIKLALTSDDGTWDAYVDFIEFSL | soluble |
